Assay results taken from patent US20240158497A1 (published 2024).

T1: extracellular domain of human LEPR, GPI-anchored, on HEK293/hLEPR-GPI cells (human, UniProt P48357 22-839, GPI anchor at the C-terminus ; GPI anchor at the C-terminus, added through the carboxypeptidase M signal peptide. The N-terminal myc-myc tag is not written.)
T1 sequence: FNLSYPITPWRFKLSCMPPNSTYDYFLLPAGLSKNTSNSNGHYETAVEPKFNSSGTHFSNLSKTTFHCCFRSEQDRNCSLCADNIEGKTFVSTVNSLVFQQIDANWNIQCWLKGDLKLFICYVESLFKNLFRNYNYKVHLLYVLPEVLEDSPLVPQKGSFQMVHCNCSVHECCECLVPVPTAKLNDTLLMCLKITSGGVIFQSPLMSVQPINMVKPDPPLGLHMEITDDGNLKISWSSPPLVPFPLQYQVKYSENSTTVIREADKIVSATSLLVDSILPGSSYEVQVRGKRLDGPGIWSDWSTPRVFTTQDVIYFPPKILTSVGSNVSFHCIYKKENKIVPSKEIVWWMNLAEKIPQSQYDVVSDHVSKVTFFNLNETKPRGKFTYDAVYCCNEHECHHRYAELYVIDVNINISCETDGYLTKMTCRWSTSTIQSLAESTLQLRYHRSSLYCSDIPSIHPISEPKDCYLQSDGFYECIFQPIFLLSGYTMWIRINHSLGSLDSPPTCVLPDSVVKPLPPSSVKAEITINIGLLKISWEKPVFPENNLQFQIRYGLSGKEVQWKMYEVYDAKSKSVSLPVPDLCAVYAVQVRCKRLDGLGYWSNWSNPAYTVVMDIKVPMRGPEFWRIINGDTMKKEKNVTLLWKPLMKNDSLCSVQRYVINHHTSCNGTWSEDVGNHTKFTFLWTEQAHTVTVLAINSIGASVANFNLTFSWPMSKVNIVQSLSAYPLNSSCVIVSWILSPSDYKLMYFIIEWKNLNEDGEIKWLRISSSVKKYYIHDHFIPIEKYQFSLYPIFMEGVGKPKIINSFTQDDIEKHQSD

T2: full length human GP130 (L2V natural variant) on HEK293/Stat3-luc/gp130-2X Sort cells (human, UniProt P40189 23-918)
T2 construct: whole, on cells; Stably over-expressed on HEK293 cells, sorted twice for high expression; also called HEK293/gp130 2X Sort
T2 sequence (looked up): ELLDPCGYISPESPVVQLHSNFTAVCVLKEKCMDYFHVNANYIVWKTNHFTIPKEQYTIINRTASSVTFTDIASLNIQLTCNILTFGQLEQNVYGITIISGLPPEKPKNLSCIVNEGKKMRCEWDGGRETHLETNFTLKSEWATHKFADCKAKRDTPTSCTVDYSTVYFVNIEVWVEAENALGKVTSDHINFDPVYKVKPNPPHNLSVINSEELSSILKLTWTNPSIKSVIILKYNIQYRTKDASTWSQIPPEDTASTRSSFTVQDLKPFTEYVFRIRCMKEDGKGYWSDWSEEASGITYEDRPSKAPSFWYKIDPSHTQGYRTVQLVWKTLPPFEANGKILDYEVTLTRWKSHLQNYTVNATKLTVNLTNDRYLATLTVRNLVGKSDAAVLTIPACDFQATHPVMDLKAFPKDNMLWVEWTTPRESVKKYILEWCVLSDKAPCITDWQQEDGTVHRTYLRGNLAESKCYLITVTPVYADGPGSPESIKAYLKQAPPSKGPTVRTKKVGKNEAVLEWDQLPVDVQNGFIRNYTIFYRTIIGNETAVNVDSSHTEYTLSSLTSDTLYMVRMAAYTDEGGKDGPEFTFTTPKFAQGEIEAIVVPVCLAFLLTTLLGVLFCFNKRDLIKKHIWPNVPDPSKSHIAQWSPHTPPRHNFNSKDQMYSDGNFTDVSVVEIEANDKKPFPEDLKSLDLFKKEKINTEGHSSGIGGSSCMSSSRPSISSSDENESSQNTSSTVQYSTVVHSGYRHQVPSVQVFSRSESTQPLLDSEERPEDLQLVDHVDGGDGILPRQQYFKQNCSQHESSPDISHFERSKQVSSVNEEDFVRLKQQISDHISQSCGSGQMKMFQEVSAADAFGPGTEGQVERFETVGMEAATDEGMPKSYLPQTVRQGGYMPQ


Tests used:
[1] = target: T1, extracellular domain of human LEPR, …; assay: FACS, 200 nM antibody on HEK293/hLEPR-GPI cells, no Leptin
Description: (§1) For the FACS analysis, 0.5×10^6 cells/well of HEK293 parental cells, HEK293/Stat3-luc/gp130-2 X Sort cells, and HEK293/hLEPR-GPI cells, were incubated with 200 nM of the conventional antibodies against either GP130 or LEPR or with LEPRxGP130 bispecific antibodies, along with isotype control antibodies at 4° C. in PBS (without calcium and magnesium) containing 2% FBS.
(§2) Cells were fixed using BD CytoFix™ (Becton Dickinson, #554655) and analyzed on an IQue® (Intellicyt) Flow Cytometer. Unstained and secondary antibody alone controls were also tested for all cell lines. The results were analyzed using ForeCyt® (IntelliCyt) and FlowJo version 10 softwares to determine the geometric means of fluorescence for viable cells.

[2] = target: T1, extracellular domain of human LEPR, …; assay: FACS, 200 nM antibody on HEK293/hLEPR-GPI cells, 1 µM Leptin
Description: as §1, §2

[3] = target: T2, full length human GP130 (L2V natural …); assay: FACS, 200 nM antibody on HEK293/gp130 2X Sort cells
Description: as §1, §2

Row | Binding Ratio, normalized to unstained sample (FL4-A) [1] [fold] | Binding Ratio, normalized to unstained sample (FL4-A) [2] [fold] | Binding Ratio, normalized to unstained sample (FL4-A) [3] [fold] | Binder
1 | 4710 | 4250 |  | mAb18445 (antibody, V domains shown, Conventional anti-LEPR antibody; also called mAB18445 (anti-LEPR mAb)) VH: QVQLQESGPGLVKPSQTLSLTCTVSGGSISSGGDYWSWIRQLPGKGLEWIGYIYYSGSAYYNPSLKSRGTISIDTSKNQFSLKLTSVTAADTAVYFCVKLRFLEWFLGGWFGPWGQGTLVTVSS VL: not shown
2 | 21 |  | 235 | mAb16683 (antibody, V domains shown, Conventional anti-GP130 antibody; also called mAb16683 (anti-GP130 mAb)) VH: QVQLVESGGGLVKPGGSLRLSCAASGFTFSDYYMTWIRQTPGKGLDWVSYISSSGTNKYNADSVKGRFTISRDNAKNSLYLQMNSLRAEDTAVYYCVRDPPWGMDVWGQGTTVTVSS VL: not shown
3 | 7020 | 6390 |  | mAb18446 (antibody, V domains shown, Conventional anti-LEPR antibody; also called mAB18446 (anti-LEPR mAb)) VH: EVQLVESGGGLVQPGGSLRLSCAASGFTFSNYGMTWVRQAPGKGLEWVSAITGGGGSTYYSNSVKGRFTISRDNSKNTVYLRMNSVRAEDTAVYYCAKYKWNFVDDWGQGTTVTVSS VL: not shown
